We go through 1 molecule from US20240342310A1 (UNIVERSITY OF VIRGINIA PATENT FOUNDATION, published 2024).

The experiment concerns the target T1, fibronectin leucine rich transmembrane protein 3 (FLRT3) (UniProt Q9NZU0 29-649, limits assumed).
T1 sequence (looked up): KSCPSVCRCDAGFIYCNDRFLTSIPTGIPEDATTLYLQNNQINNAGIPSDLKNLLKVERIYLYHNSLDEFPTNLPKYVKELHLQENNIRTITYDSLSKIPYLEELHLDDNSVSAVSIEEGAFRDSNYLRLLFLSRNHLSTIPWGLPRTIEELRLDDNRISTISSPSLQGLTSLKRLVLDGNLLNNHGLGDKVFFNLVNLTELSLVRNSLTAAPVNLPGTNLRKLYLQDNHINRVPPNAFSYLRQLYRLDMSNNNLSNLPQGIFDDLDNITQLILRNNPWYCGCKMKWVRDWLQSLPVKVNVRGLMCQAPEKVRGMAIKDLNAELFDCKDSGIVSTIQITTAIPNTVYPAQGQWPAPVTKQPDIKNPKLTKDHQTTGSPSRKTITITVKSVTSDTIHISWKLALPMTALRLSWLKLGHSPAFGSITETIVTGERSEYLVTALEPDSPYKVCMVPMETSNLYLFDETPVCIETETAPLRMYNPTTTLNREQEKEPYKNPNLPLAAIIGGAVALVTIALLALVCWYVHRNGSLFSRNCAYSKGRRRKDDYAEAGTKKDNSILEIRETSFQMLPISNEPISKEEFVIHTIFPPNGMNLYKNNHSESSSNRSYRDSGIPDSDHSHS
The experiment in a line: co-immunoprecipitation (data not shown).

B1: circCCDC7-180aa (other)
chain: MQVGNSQTKVKGEDSKNIPLEKETRKSLVSDSGGQRTSDKIQEYPQITAQSGRLIEKSSEKKRSSPAISDLSQILKSQDESAFLESSNEVSVAENQSYKSPSETHDKSLTTVSSSKEVQDSLSVGTLAQKNETVISPFILPPVLTESKKADVSEEQLQKMTEEQTYQAAEKSQESSTSGN
notes: All other experiments on the protein used the C-terminally 3xFLAG-tagged form expressed from plenti-ciR-GFP-T2A; also called 180aa protein encoded by circCCDC7(15, 16, 17, 18, 19); CCDC719-15 encoded protein; not shown: 3xFLAG tag inserted just before the stop codon in the expression construct
For B1, the binding result is given as “no binding”.
